According to PMC5540999, “In vivo monitoring of the recruitment and activation of AP-1 by Arf1” (Scientific Reports, 2017):

Target: T1, β1-RlucII (human, UniProt Q10567 1-949)
T1 construct: β1 subunit of AP-1, human; amplified by PCR minus the stop codon; also called β-RlucII; source: HEK293T, transfected, in live cells (BRET), cell fractions and lysate (co-IP); not shown: RlucII, C-terminal, kept
T1 sequence (looked up): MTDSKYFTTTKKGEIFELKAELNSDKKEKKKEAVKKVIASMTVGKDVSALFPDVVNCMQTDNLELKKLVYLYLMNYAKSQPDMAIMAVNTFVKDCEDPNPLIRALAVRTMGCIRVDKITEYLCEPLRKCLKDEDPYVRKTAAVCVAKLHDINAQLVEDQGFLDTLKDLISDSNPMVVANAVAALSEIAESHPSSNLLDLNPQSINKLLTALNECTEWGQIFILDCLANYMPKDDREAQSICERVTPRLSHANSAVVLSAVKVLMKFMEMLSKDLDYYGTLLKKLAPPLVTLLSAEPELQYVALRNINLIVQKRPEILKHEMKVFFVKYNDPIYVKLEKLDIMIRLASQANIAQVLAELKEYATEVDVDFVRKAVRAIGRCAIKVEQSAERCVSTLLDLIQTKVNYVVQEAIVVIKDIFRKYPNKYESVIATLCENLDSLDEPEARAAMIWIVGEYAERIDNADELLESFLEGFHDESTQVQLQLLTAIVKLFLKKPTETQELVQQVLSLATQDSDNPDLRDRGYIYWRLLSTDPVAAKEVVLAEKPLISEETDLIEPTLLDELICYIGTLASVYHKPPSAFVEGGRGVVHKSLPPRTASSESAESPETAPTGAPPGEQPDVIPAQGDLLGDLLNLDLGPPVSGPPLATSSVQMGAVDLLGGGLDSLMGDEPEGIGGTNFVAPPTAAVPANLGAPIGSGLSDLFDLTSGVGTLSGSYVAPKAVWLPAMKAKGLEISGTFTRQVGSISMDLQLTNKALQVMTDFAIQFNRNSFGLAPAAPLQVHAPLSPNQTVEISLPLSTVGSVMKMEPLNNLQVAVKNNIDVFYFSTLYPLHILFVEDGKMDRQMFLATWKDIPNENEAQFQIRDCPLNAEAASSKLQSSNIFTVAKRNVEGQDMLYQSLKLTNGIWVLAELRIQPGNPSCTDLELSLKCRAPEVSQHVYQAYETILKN
Experiment: FRET or BRET; BRET^2 in live HEK293T cells (γ/µ1 also in Arf1-KO cells; some panels with Brefeldin A 10 µM 15 min or co-expressed Arf1-HA forms): low constant amount of the RlucII donor, increasing amounts of the GFP10 acceptor; coelenterazine 400a 5 µM; BRET50 and BRETmax from a one-site saturation fit
Conditions: partners not purified

fold decrease of BRET50 in the presence of Arf1^Q71L-HA: ~4 fold
B1: β1-GFP10 (AP-1 β1 subunit, wild type) (natural protein, human, UniProt Q10567 1-949, looked up)
chain: T1 sequence (looked up)
notes: β1 subunit of the adaptor protein complex 1 (AP-1), human; amplified by PCR minus the stop codon; also called β-GFP10; full-length β1-GFP10; source: HEK293T, transfected, in live cells (BRET), cell fractions and lysate (co-IP); not shown: GFP10, C-terminal, kept
